Where “and” joins values, the source holds several entries; their conditions need not be identical. Equal values may be shown once. Read-outs that look alike come from different tables or passages of the source. No end group written: not given here. *: point of attachment. AMC = Cc1cc(=O)oc2cc(N*)ccc12
Experiments:
[1] = system: VsHdaH (1b); assay type: biochemical, Vibrio sp.
[2] = system: RsPrpH (1b); experiment: Substrate screening assay (acyl-peptide-AMC); assay type: biochemical, Rhizorhabdus sp.
[3] = target: RwDmhA (1b) (Rhizorhabdus wittichii, UniProt A0A067XIQ6); assay type: biochemical
[4] = target: KpHdaH (1b) (Klebsiella pneumoniae, UniProt A0A377Z5F6); assay type: biochemical
[5] = target: T1, BsAcuC (2c) (Bacillus subtilis, UniProt P39067); experiment: Substrate screening assay (acyl-peptide-AMC); assay type: biochemical
T1 construct: made in house; host or cells: E. coli BL21 (DE3)
T1 sequence (P39067 1-387): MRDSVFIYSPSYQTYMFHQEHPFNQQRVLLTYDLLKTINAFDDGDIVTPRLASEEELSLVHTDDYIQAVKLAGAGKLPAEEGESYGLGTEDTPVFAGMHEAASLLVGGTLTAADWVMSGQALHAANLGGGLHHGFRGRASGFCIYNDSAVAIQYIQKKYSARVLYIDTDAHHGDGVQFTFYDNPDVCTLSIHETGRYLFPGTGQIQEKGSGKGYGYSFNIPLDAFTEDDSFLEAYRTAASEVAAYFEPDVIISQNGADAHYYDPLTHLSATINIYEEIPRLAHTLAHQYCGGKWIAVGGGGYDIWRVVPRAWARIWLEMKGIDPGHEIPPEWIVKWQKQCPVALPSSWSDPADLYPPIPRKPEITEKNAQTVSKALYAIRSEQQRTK
Protocol: (§1) Experiments with SIRT2 and SIRT5 were supplemented with NAD^+ (500 µM). Thereafter, a solution of trypsin (25 µL, 5.0 mg/mL; final concentration of 2.5 mg/mL) was added, and the development of the assay was allowed to proceed for 90 min at room temperature before fluorescence analysis. […] To this end, a single category is given to all conversions >48% on the heatmap. […] For the H4-derived peptide LGKbio no positive control was available.

[6] = system: VcHdaH (5b); assay type: biochemical, Vibrio cholerae
[7] = target: PsApaH (4) (Pseudomonas sp. M30-35, UniProt A0A1Y0KY79); assay type: biochemical
Protocol: as §1

[8] = target: LcApaH (3) (Legionella cherrii, UniProt A0A0W0SGS1); assay type: biochemical
[9] = target: LpApaH (3) (Legionella pneumophila, UniProt A0A2S6EWV0); assay type: biochemical
[10] = system: Controls; assay type: biochemical
[11] = system: Controls; assay type: biochemical; remark: listed apart in the source
[12] = substrate screening, mean of two measurements
[13] = substrate screening, measurement 1 of two
[14] = substrate screening, measurement 2 of two
[15] = two measurements, single values

## QPKKdec (QPKK-{AMC}; not fully specified (residue 4); printed as QPKKdec; also: decanoyl-lysine (which Lys not given here); UniProt P04637 317-320, looked up, fragment)
[1]; means of two measurements
  RFU means, VsHdaH (1b): 82 RFU
  RFU*2 means, VsHdaH (1b): 164 RFU*2
[1]; [12]
  [AMC] (nM), VsHdaH (1b), means: 80.08 nM
[1]; [13]
  [AMC] (nM), VsHdaH (1b): 61.52 nM
[1]; [14]
  [AMC] (nM), VsHdaH (1b): 98.63 nM
[1]; [15]
  RFU*2, VsHdaH (1b): 126 RFU*2 and 202 RFU*2
  RFU, VsHdaH (1b): 63 RFU and 101 RFU
[2]; means of two measurements
  RFU means, RsPrpH (1b): 37.5 RFU
  RFU*2 means, RsPrpH (1b): 75 RFU*2
[2]; [12]
  [AMC] (nM), RsPrpH (1b), means: 36.62 nM
[2]; [13]
  [AMC] (nM), RsPrpH (1b): 31.25 nM
[2]; [14]
  [AMC] (nM), RsPrpH (1b): 41.99 nM
[2]; [15]
  RFU*2, RsPrpH (1b): 64 RFU*2 and 86 RFU*2
  RFU, RsPrpH (1b): 32 RFU and 43 RFU
[3]; means of two measurements
  RFU means, RwDmhA (1b): 33 RFU
  RFU*2 means, RwDmhA (1b): 66 RFU*2
[3]; [12]
  [AMC] (nM), RwDmhA (1b), means: 32.23 nM
[3]; [13]
  [AMC] (nM), RwDmhA (1b): 18.55 nM
[3]; [14]
  [AMC] (nM), RwDmhA (1b): 45.90 nM
[4]; means of two measurements
  RFU means, KpHdaH (1b): 58 RFU
  RFU*2 means, KpHdaH (1b): 116 RFU*2
[4]; [12]
  [AMC] (nM), KpHdaH (1b), means: 56.64 nM
[4]; [13]
  [AMC] (nM), KpHdaH (1b): 48.83 nM
[4]; [14]
  [AMC] (nM), KpHdaH (1b): 64.45 nM
[4]; [15]
  RFU*2, KpHdaH (1b): 100 RFU*2 and 132 RFU*2
  RFU, KpHdaH (1b): 50 RFU and 66 RFU
[5]; means of two measurements
  RFU means, BsAcuC (2c): 1377 RFU
  RFU*2 means, BsAcuC (2c): 2754 RFU*2
[5]; [12]
  [AMC] (nM), BsAcuC (2c), means: 1344.73 nM
[5]; [15]
  RFU*2, BsAcuC (2c): 3196 RFU*2 and 2312 RFU*2
[6]; means of two measurements
  RFU means, VcHdaH (5b): 53.5 RFU
  RFU*2 means, VcHdaH (5b): 107 RFU*2
[6]; [12]
  [AMC] (nM), VcHdaH (5b), means: 52.25 nM
[7]; means of two measurements
  RFU means, PsApaH (4): 97 RFU
  RFU*2 means, PsApaH (4): 194 RFU*2
[7]; [12]
  [AMC] (nM), PsApaH (4), means: 94.73 nM
[7]; [13]
  [AMC] (nM), PsApaH (4): 91.80 nM
[7]; [14]
  [AMC] (nM), PsApaH (4): 97.66 nM
[7]; [15]
  RFU*2, PsApaH (4): 200 RFU*2 and 188 RFU*2
  RFU, PsApaH (4): 100 RFU and 94 RFU
[8]
  RFU means, LcApaH (3): 167 RFU
  RFU*2, LcApaH (3): 294 RFU*2 and 374 RFU*2
  RFU*2 means, LcApaH (3): 334 RFU*2
  RFU, LcApaH (3): 147 RFU and 187 RFU
  [AMC] (nM), LcApaH (3): 143.55 nM and 182.62 nM
  [AMC] (nM), LcApaH (3), means: 163.09 nM
[9]
  RFU means, LpApaH (3): 175 RFU
  RFU*2, LpApaH (3): 316 RFU*2 and 384 RFU*2
  RFU*2 means, LpApaH (3): 350 RFU*2
  RFU, LpApaH (3): 158 RFU and 192 RFU
  [AMC] (nM), LpApaH (3): 154.30 nM and 187.50 nM
  [AMC] (nM), LpApaH (3), means: 170.90 nM
[10]
  RFU means, controls: 16210.5 RFU
  RFU*2, controls: 29980 RFU*2 and 34862 RFU*2
  RFU*2 means, controls: 32421 RFU*2
  RFU, controls: 14990 RFU and 17431 RFU
[11]
  [AMC] (nM), controls, means: 15830.57 nM

— paper PMC11532494 (Nature Communications, 2024)
